Consider two molecules from paper PMC5725786, “Characterization of interactions between hepatitis C virus NS5B polymerase, annexin A2 and RNA – effects on NS5B catalysis and allosteric inhibition”.

Series [1] addresses Bovine annexin A2 (bovine) (UniProt P04272). The series is described as follows: SPR; AnxA2 or mAnxA2 immobilised on a CM5 chip by amine coupling, NS5B (31 to 500 nM) as analyte; multi cycle with regeneration (2 M NaCl and 2 M MgCl2); 25 °C, HBS-EP pH 7.4 with 70 uM Ca2+ and 1 mM Mg2+; approximate steady state analysis, apparent KD. (SPR reads the build-up and loss of mass on a sensor chip optically.)

Series [2] deals with Bovine annexin A2 engineered variant unable to bind RNA (mAnxA2) (bovine) (UniProt P04272). The description is as above.
The next series has as its target mAnxA2 (Bos taurus (bovine), UniProt P04272 1-339, K308S;K309S;K310S;K313S;Y317S;Q321S). As to the kind of experiment: SPR; 3-100 nM RNA over immobilized mAnxA2; 70 uM Ca2+, 1 mM Mg2+; HBS-EP: 10 mM HEPES pH 7.4, 150 mM NaCl, 3 mM EDTA, 0.005% Surfactant P20, 70 uM Ca2+, 1 mM Mg2+, 25 °C. To be noted: protein: recombinant; single strand.
Series [3] concerns the target T1, AnxA2 (annexin A2, wt) (Bos taurus (bovine), UniProt P04272 1-339). The series is described as follows: SPR; steady-state analysis; 70 uM Ca2+, 1 mM Mg2+; AnxA2 immobilized; HBS-EP: 10 mM HEPES pH 7.4, 150 mM NaCl, 3 mM EDTA, 0.005% Surfactant P20, 70 uM Ca2+, 1 mM Mg2+, 25 °C. The conditions noted are these: protein: recombinant; single strand.
In series [4] the target is T1, AnxA2 (annexin A2, wt). The series is described as follows: SPR; kinetic 1:1 fit (ka 0.99e6 1/Ms, kd 0.002 1/s); 70 uM Ca2+, 1 mM Mg2+; AnxA2 immobilized; HBS-EP: 10 mM HEPES pH 7.4, 150 mM NaCl, 3 mM EDTA, 0.005% Surfactant P20, 70 uM Ca2+, 1 mM Mg2+, 25 °C. The conditions noted are these: protein: recombinant; single strand.

Take “HCV NS5B polymerase, ectodomain (NS5BΔ21), genotype 1b (enzyme)”: the results for the Kd in series [1] and in series [2] were 30 nM and 240 nM, respectively.
In the case of GGGGAUUG (ssRNA) [8-mer RNA], the binding result in the series with mAnxA2 is reported as “no binding”. In addition, the Kd with AnxA2 (annexin A2, wt) [3] is 8.3 nM; with AnxA2 (annexin A2, wt) [4], 2 nM.
